This is an account of results in paper PMC11997214.

The nature of the data set: Flag IP, Ub blots after NMS-873 or CB-5083. The following applies: glycan lost; control: wild type.

B1: B7H3 (4IgB7H3, CD276): N91/104/309/322Q (protein)
parent chain: MLRRRGSPGMGVHVGAALGALWFCLTGALEVQVPEDPVVALVGTDATLCCSFSPEPGFSLAQLNLIWQLTDTKQLVHSFAEGQDQGSAYANRTALFPDLLAQGNASLRLQRVRVADEGSFTCFVSIRDFGSAAVSLQVAAPYSKPSMTLEPNKDLRPGDTVTITCSSYQGYPEAEVFWQDGQGVPLTGNVTTSQMANEQGLFDVHSILRVVLGANGTYSCLVRNPVLQQDAHSSVTITPQRSPTGAVEVQVPEDPVVALVGTDATLRCSFSPEPGFSLAQLNLIWQLTDTKQLVHSFTEGRDQGSAYANRTALFPDLLAQGNASLRLQRVRVADEGSFTCFVSIRDFGSAAVSLQVAAPYSKPSMTLEPNKDLRPGDTVTITCSSYRGYPEAEVFWQDGQGVPLTGNVTTSQMANEQGLFDVHSVLRVVLGANGTYSCLVRNPVLQQDAHGSVTITGQPMTFPPEALWVTVGLSVCLIALLVALAFVCWRKIKQSCEEENAGAEDQDGEGEGSKTALQPLKHSDSKEDDGQEIA
B1: the “other: total and K48-linked ubiquitination” value is listed as “increases”.

B2: B7H3 (4IgB7H3, CD276): 8NQ (protein)
parent chain: B1 parent chain
With B2, the “other: total and K48-linked ubiquitination” value was “increases”.
